A word on the Kd: it is the constant that tells how readily two partners part at equilibrium. Low readings indicate higher affinity, high ones lower affinity.

The values below come from paper PMC8945915, “An Electrochemical Impedance Spectroscopy-Based Aptasensor for the Determination of SARS-CoV-2-RBD Using a Carbon Nanofiber–Gold Nanocomposite Modified Screen-Printed Electrode”.

The series addresses SARS-CoV-2 spike receptor-binding domain (SARS-CoV-2-RBD, ~35 kDa) (SARS-CoV-2, UniProt P0DTC2 319-541). Put plainly: electrochemical impedance spectroscopy (Langmuir isotherm).

B1: thiol-terminal SARS-CoV-2-RBD aptamer (ssDNA)
DNA: CAGCACCGACCTTGTGCTTTGGGAGTGCTGGTCCAAGGGCGTTAATGGACA
modifications: 5' SH-(CH2)6 thiol
For B1, the Kd is 0.42 nM.
